Publication PMC5977995

B1: 24-mer telomere RNA (structured_RNA)
RNA: UUAGGGUUAGGGUUAGGGUUAGGG
B2: BrU 12-mer telomere RNA (structured_RNA)
RNA: UUAGGGUUAGGG
modifications: 5-bromouridine at position 8 (printed UUAGGGU(BrU)-AGGG)

Columns and labels:
[1] = biological target: T1, hnRNPA1 RNA-binding domain (human, UniProt P09651 1-196); test: EMSA
[2] = biological target: T1, hnRNPA1 RNA-binding domain; test: UV photo-cross-linking

T1 sequence (P09651 1-196): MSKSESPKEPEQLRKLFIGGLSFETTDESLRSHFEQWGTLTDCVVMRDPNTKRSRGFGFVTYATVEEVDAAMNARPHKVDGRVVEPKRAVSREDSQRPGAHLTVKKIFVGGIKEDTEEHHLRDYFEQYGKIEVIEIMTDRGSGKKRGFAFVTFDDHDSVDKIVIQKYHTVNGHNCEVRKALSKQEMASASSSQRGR

Row | Binder | Kd [1] [nM] | binding result [2]
1 | B1 | 37.6 | –
2 | B2 | – | binds
